Experimental data taken from PMC7834092.

Target: Eno_(N-Strep), N-terminally Strep-tagged enolase encoded at its native locus (Bacillus subtilis), P37869
Assay: pull-down
Settings: remark: other sources report otherwise

Eno_(N-Strep), N-terminally Strep-tagged enolase encoded at its native locus (Bacillus subtilis), P37869, sequence (P37869 whole entry): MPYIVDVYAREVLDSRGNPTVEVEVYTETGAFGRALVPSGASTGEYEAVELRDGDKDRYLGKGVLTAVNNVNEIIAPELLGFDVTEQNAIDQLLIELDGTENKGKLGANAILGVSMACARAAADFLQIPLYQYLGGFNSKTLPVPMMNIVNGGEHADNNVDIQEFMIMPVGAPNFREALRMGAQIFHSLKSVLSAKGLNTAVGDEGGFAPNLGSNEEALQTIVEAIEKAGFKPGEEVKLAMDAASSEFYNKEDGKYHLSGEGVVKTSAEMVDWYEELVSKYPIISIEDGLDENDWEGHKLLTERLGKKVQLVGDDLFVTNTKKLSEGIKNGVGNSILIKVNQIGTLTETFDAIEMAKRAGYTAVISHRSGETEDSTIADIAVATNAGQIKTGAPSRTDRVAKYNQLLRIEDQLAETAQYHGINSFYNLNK

less RNase Y co-eluted after RNase A treatment of the extract: 20 to 30%
B1: RNase Y (native) of B. subtilis, O31774 1-520 (enzyme)
chain: MTPIMMVLISILLILLGLVVGYFVRKTIAEAKIAGARGAAEQILEDAKRDAEALKKEALLEAKDEIHKLRIDAEQEVRERRNELQKQENRLLQKEENLDRKHEGIDKREAMLEKKDHSLNERQQHIEEMESKVDEMIRMQQSELERISSLTRDEAKQIILERVENELSHDIAIMTKETENRAKEEADKKAKNILSLALQRCAADHVAETTVSVVNLPNDEMKGRIIGREGRNIRTLETLTGIDLIIDDTPEAVILSGFDPIRRETARIALDKLVQDGRIHPARIEEMVEKSRREVDDYIREMGEQTTFEVGVHGLHPDLIKILGRLKFRTSYGQNVLKHSMEVAFLAGLMASELGEDAKLAKRAGLLHDIGKAIDHEVEGSHVEIGVELATKYKEHPVVINSIASHHGDEEPTSIIAVLVAAADALSAARPGARSETLENYIRRLEKLEEISESYEGVEKSFAIQAGREVRIMVKPDSINDLEAHRLARDIRKRIEDELDYPGHIKVTVIRETRAVEYAK
